Assay results reported in publication PMC6753139, “TRIM66 reads unmodified H3R2K4 and H3K56ac to respond to DNA damage in embryonic stem cells” (Nature Communications, 2019).

What was measured:
ESCs [1] = test: survival with DNA repair inhibitors (HR, NHEJ); type: cell-based, mouse; conditions: TRIM66-depleted ESCs under EPI treatment with HR or NHEJ inhibitor
From the text: reagent (Fig. S9b, c). We further performed the competitive survival experiment through co-culturing the GFP-labeled wild-type ESCs and TRIM66 KO ESCs under EPI treatment, and our […]
was indeed required for ESC to survive DNA damage (Fig. S9d). […]
localization of γ-H2AX foci and HR repair related proteins (Rad51 and CtIP) or NHEJ repair related protein (DNA-PKcs) in ESCs (Fig. 5f, 5g, S11d, and S11e). We further applied two specific inhibitors (YU238259 and NU7441) to block HR and NHEJ repair respectively (Stachelek et al., […]
affect both HR and NHEJ repair pathways in ESCs (Fig. S11f). To better clarify the mechanisms of TRIM66 involved in the regulation of DNA damage, w e performed the immunofluorescence assay […]
to bind at DNA damage sites (Fig. S11a). […] We also analyzed the relevance of […]
depletion of TRIM66 disrupted the negative correlation of H3K56ac and γ-H2AX (Fig. 5d). In view of the recognition of TRIM66 and H3K56ac (Fig.2 and Fig. S10), we speculated that the loose winding of nucleosomal DNA nearby the DNA damage sites might expose H3K56ac to its reader TRIM66, while TRIM66 deficiency impeded the erasure of H3K56ac at DNA damage sites and the recruitment of DNA repair proteins. […]

ESCs [2] = test: survival analysis of ESCs treated with DNA-damaging agents; type: cell-based, mouse; conditions: TRIM66-depleted ESCs
Experimental: Furthermore, we performed competitive survival experiment through mixing the equal amount of TRIM66-KO ESCs and green fluorescent protein (GFP)-labeled WT ESCs (WT-GFP), then co-cultured for 5 days under EPI treatment.
For the culture of ESCs, the medium was changed every day and the cells were passaged every 2 days. The 293T cells were cultured in DMEM containing 10% fetal bovine serum. […]
a, The expression level of DNA damage related genes (Cdkn1a, Gadd45a, and p53) in WT and TRIM66 KO ESCs […]
assay c in WT and TRIM66 KO ESCs treated with EPI. e, Clonal competition assay of WT and TRIM66 KO ESCs treated with EPI in different days (day 1, 3, and 5). Representative images show the mixtures of WT-GFP and […] clones. Scale bar, 10 μm.* represents a difference from WT ESCs or GFP-negative ESC clones at day 1, # indicates a difference from GFP-positive ESC clones at day 1. Statistical significance is determined by two-tailed
(1 picture or pasted object on this page, not shown here)

[3] = biological target: TRIM66-WT_(965-1160) (PHD-Bromodomain) (human) (UniProt O15016); test: ITC; MicroCal PEAQ-ITC, 25 °C, 20 mM Tris, 100 mM NaCl, pH 7.5; 0.7-4 mM peptide injected into the cell with 0.12 mM TRIM24-PHD-Bromo, 0.05 mM TRIM33 PHD-Bromo, or 0.05 or 0.11-[…] TRIM66-PHD-Bromo (or its mutants); single measurement, errors from the fitting curve
TRIM66_(965-1160) E968A [4] = biological target: T1, TRIM66_(965-1160) E968A (human, UniProt O15016 965-1160, E968A); test: as above
TRIM66_(965-1160) N969A [5] = biological target: T2, TRIM66_(965-1160) N969A (human, UniProt O15016 965-1160, N969A); test: as above
[6] = biological target: TRIM66-MUT_(968-1160) (PHD-Bromodomain) (human) (UniProt O15016); test: as above
[7] = biological target: T3, TRIM24_(824-1006) (PHD-Bromodomain) (human, UniProt O15164 824-1006); test: ITC; MicroCal PEAQ-ITC, 25 °C, 20 mM Tris, 100 mM NaCl, pH 7.5; 0.7-4 mM peptide injected into the cell with 0.12 mM TRIM24-PHD-Bromo, 0.05 mM TRIM33 PHD-Bromo, or 0.05 or 0.11-0.15 mM TRIM66-PHD-Bromo (or its mutants); single measurement, errors from the fitting curve; conditions: both partners purified
T3 construct: TRIM24 PHD-Bromodomain, Homo sapiens, residues 824-1006 of UniProt O15164 (Isoform long); also called TRIM24-PHD-Bromo; source: E. coli BL21 (DE3), purified (Ni column, SUMO protease, second Ni column, Superdex 75)
T3 sequence (looked up): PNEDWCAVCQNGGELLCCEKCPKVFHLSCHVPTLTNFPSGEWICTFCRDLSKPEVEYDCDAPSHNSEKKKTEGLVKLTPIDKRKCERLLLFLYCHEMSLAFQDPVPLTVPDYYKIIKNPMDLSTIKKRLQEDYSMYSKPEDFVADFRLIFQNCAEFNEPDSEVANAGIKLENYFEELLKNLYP

[8] = biological target: T4, TRIM33_(882-1087) (PHD-Bromodomain) (human, UniProt Q9UPN9 882-1087); test: as above; conditions: both partners purified
T4 construct: also called TRIM33 PHD-Bromo; source: E. coli BL21 (DE3), purified (Ni column, SUMO protease, second Ni column, Superdex 75)
T4 sequence (looked up): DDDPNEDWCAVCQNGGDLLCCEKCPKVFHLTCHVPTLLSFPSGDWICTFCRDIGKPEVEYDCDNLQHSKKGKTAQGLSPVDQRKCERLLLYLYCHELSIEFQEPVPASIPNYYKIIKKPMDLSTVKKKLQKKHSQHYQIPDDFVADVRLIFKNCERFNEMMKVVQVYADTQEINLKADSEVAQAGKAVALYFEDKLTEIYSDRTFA

TRIM66_(965-1160) E968A [9] = biological target: T1, TRIM66_(965-1160) E968A; test: ITC
Target sequence in this assay (O15016 1100-1295 E1103A): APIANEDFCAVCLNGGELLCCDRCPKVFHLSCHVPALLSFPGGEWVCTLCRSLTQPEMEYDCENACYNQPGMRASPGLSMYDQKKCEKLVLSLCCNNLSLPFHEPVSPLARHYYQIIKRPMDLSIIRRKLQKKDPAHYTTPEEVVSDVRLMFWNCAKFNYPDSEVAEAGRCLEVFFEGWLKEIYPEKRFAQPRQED

TRIM66_(965-1160) N969A [10] = biological target: T2, TRIM66_(965-1160) N969A; test: ITC
Target sequence in this assay (O15016 1100-1295 N1104A): as the sequence (O15016 1100-1295 E1103A) above, with A4E, N5A counted along it

TRIM33_(882-1087) = biological target: T5, TRIM33_(882-1087) (human, UniProt Q9UPN9 882-1087); test: ITC; 0.7–4 mM peptide injected into a cell with 0.05 or 0.11–0.15 mM TRIM66-PHD-Bromo (or its mutants), 0.12 mM TRIM24-PHD-Bromo or 0.05 mM TRIM33 PHD-Bromo; 25 °C; 20 mM Tris, 100 mM NaCl, pH 7.5; MicroCal PEAQ-ITC; single measurement; conditions: both partners purified
T5 construct: also called TRIM33 PHD-Bromo; TRIM33 PHD-Bromodomain; source: E. coli BL21 (DE3), purified (Ni-chelating column, SUMO protease, second nickel column, Superdex 75)
T5 sequence (looked up): T4 sequence (looked up)

TRIM24_(824-1006) = biological target: T6, TRIM24_(824-1006) (human, UniProt O15164 824-1006); test: as above; conditions: both partners purified
T6 construct: TRIM24, human, PHD-Bromodomain, residues 824-1006, amplified from a human bone marrow cDNA library, in pET-SUMO-28a (+); also called TRIM24-PHD-Bromo; TRIM24 PHD-Bromodomain; source: E. coli BL21 (DE3), purified (Ni-chelating column, SUMO protease, second nickel column, Superdex 75)
T6 sequence (looked up): T3 sequence (looked up)

For `O=c1cc(N2CCOCC2)oc2c(-c3cccc4c3sc3ccccc34)cccc12` [NU7441], the “survival rate of TRIM66-depleted ESCs (in words)” value (ESCs [1]) was “significant decrease in the survival rate”.

YU238259 was tested, and the “survival rate of TRIM66-depleted ESCs (in words)” value (ESCs [1]) was “significant decrease in the survival rate”.

For bleomycin, the “survival of TRIM66-KO versus WT ESCs (in words)” value (ESCs [2]) was “significantly impaired” and the “survival of TRIM66-KO versus WT ESCs (in words)” value (ESCs [2]; listed as bleomycin) was “significantly reduced the survival rates”.

B1: H3_(1-12) peptide (peptide, UniProt P68431 2-13, looked up)
peptide: ARTKQTARKSTG
notes: histone H3.1, Homo sapiens, residues 1-12; also called unH3_(1-12); unmodified H3_(1-12); source: synthetic peptide (GL Biochem)
With B1 the stoichiometry N [3] was 0.96, the Kd (TRIM66_(965-1160) E968A [4]) was 34.8 µM and the stoichiometry N (TRIM66_(965-1160) E968A [4]) was 1.04. It also gave a Kd (TRIM66_(965-1160) N969A [5]) of 72.6 µM, a stoichiometry N (TRIM66_(965-1160) N969A [5]) of 0.84 and a stoichiometry N [6] of 1.12. The “stoichiometry N” value [7] was 0.92 and the “stoichiometry N” value [8] was 1.06.

B2: H3_(1-12) peptide, unmodified (peptide, UniProt P68431 2-13, looked up)
peptide: ARTKQTARKSTG
notes: histone H3, residues 1-12, unmodified; also called unH3_(1-12); unmodified H3_(1-12); source: synthetic peptide (GL Biochem, Shanghai)
B2 showed a Kd (TRIM66_(965-1160) E968A [9]) of 34.8 µM, a Kd (TRIM66_(965-1160) N969A [10]) of 72.6 µM and a Kd (TRIM33_(882-1087)) of 3.39 µM. It also gave a Kd (TRIM24_(824-1006)) of 51.4 µM.
